From patent publication US20140087995A1 (published 2014)
Numbered stars: 1 amine (or outer) side, 2 acyl side, 3 side chain; on linkers, the order of the positions; unused ones are H or OH. Bridge positions count the residues as written; N and C are the ends. Side chains are listed from the residue outwards. Ends that are not written are not given here. * marks the point of attachment. C20 diacid = O=C(O)CCCCCCCCCCCCCCCCCCC(=O)*; γGlu = O=C(O)[C@H](CCC(=O)[*:2])N[*:1]

T1: human calcitonin receptor (human, UniProt P30988 25-474)
T1 sequence (looked up): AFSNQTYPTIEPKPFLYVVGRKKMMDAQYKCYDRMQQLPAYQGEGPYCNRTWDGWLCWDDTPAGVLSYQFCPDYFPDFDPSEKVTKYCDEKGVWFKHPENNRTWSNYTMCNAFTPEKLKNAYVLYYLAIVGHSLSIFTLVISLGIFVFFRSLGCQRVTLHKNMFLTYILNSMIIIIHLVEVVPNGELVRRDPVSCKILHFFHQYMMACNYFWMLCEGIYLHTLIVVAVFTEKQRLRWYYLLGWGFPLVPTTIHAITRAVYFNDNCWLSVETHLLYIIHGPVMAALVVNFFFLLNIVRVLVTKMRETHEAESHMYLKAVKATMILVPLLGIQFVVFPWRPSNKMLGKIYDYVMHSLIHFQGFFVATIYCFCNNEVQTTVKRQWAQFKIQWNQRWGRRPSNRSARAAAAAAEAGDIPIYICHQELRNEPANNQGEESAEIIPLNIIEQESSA

T2: rat amylin receptor (rat calcitonin receptor with rat RAMP 3) (rat, UniProt P32214 25-516; Q9JJ73 23-147)
T2 construct: whole, on cells; Used as membranes prepared from the transfected cells; also called rAmylin-R; rAmylin
T2 sequence (looked up) 1: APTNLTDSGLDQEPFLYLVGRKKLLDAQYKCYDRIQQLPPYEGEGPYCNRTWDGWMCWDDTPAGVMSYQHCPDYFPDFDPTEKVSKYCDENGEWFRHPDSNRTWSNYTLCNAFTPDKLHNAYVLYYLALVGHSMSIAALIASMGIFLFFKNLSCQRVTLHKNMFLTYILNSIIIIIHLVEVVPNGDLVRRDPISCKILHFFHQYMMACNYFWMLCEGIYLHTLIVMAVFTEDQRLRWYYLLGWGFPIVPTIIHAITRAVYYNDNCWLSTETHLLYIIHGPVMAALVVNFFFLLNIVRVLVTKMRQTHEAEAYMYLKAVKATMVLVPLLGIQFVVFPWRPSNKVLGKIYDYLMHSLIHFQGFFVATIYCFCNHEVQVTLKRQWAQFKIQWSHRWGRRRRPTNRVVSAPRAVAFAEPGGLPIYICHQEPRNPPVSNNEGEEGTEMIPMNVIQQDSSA
T2 sequence (looked up) 2: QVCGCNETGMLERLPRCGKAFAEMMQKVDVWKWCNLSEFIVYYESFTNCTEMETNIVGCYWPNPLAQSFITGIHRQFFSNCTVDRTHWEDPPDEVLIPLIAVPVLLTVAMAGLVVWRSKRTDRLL

T3: rat calcitonin receptor (rat, UniProt P32214 25-516)
T3 construct: whole, on cells; Used as membranes prepared from the transfected cells; also called rCTR; rCT
T3 sequence (looked up): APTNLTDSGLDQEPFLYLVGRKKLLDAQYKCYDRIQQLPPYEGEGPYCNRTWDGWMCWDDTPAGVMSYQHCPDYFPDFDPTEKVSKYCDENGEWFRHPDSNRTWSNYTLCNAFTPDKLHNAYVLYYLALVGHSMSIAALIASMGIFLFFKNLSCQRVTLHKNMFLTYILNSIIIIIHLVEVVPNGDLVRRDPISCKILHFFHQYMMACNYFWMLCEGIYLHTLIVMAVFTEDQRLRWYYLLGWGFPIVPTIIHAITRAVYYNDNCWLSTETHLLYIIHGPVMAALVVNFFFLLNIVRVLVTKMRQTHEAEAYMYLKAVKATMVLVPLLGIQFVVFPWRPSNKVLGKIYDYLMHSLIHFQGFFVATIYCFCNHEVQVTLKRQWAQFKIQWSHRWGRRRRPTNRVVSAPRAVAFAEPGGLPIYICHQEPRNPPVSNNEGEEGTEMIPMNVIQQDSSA

T4: human calcitonin receptor (human, UniProt P30988 25-474)
T4 construct: whole, on cells; Used as membranes prepared from the transfected cells; also called hCTR; hCT
T4 sequence (looked up): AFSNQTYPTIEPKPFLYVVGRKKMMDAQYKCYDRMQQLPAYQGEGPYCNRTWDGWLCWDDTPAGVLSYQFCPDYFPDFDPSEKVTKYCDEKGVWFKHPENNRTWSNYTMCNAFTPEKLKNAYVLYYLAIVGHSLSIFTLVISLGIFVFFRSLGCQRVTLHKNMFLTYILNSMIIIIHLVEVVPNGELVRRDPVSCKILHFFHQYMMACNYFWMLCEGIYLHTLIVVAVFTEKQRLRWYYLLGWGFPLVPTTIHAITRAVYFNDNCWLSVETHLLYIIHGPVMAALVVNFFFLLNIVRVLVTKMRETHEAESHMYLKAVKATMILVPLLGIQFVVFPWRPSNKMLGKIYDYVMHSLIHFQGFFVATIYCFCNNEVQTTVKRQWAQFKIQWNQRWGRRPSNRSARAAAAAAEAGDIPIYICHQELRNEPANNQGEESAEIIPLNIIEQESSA


Key:
[1] = molecular target: T1, human calcitonin receptor; assay: cell-based or functional assay
[2] = molecular target: T2, rat amylin receptor (rat calcitonin …); assay: SPA competition with 125I-rat amylin, membranes with rat calcitonin receptor + rat RAMP3 (Assay VI)
rat calcitonin receptor [3] = molecular target: T3, rat calcitonin receptor; assay: SPA competition with 125I-calcitonin, membranes with rat calcitonin receptor (Assay VIII)
rat calcitonin receptor [4] = molecular target: T3, rat calcitonin receptor; assay: ratio of binding IC50 at rat calcitonin receptor to IC50 at rat amylin receptor (reference)
[5] = molecular target: T4, human calcitonin receptor; assay: ratio of binding IC50 at human calcitonin receptor to IC50 at human amylin receptor (reference)
Summary of the method: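 Scintillation proximity competition binding on cell membranes at 35 ng/μL with SPA beads, in 50 mM Hepes pH 7.4, 1 mM CaCl2, 5 mM MgCl₂, 0.1% OA, 0.02% Tween20. Incubated 120 min at 25° C with shaking. IC₅₀ from one-site competition fit.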

Row | hCTR funct. EC50 (pM) [1] [pM] | IC50 [2] [nM] | IC50 (rat calcitonin receptor [3]) [nM] | Ratio rCT/rAmylin binding (rat calcitonin receptor [4]) | Ratio hCT/hAmylin binding [5] | Binder
1 | 19200 |  |  |  |  | K([γGlu-γGlu-C20 diacid])CNTATCATQRLANFLRHSSPNFGAIPSSTNVGHNTY-NH2 (disulfide 2-7; N-terminus assumed; SMILES CC[C@H](C)[C@H](NC(=O)[C@H](C)NC(=O)CNC(=O)[C@H](Cc1ccccc1)NC(=O)[C@H](CC(N)=O)NC(=O)[C@@H]1CCCN1C(=O)[C@H](CO)NC(=O)[C@H](CO)NC(=O)[C@H](Cc1c[nH]cn1)NC(=O)[C@H](CCCNC(=N)N)NC(=O)[C@H](CC(C)C)NC(=O)[C@H](Cc1ccccc1)NC(=O)[C@H](CC(N)=O)NC(=O)[C@H](C)NC(=O)[C@H](CC(C)C)NC(=O)[C@H](CCCNC(=N)N)NC(=O)[C@H](CCC(N)=O)NC(=O)[C@@H](NC(=O)[C@H](C)NC(=O)[C@@H]1CSSC[C@H](NC(=O)[C@@H](N)CCCCNC(=O)CC[C@H](NC(=O)CC[C@H](NC(=O)CCCCCCCCCCCCCCCCCCC(=O)O)C(=O)O)C(=O)O)C(=O)N[C@@H](CC(N)=O)C(=O)N[C@@H]([C@@H](C)O)C(=O)N[C@@H](C)C(=O)N[C@@H]([C@@H](C)O)C(=O)N1)[C@@H](C)O)C(=O)N1CCC[C@H]1C(=O)N[C@@H](CO)C(=O)N[C@@H](CO)C(=O)N[C@H](C(=O)N[C@@H](CC(N)=O)C(=O)N[C@H](C(=O)NCC(=O)N[C@@H](Cc1c[nH]cn1)C(=O)N[C@@H](CC(N)=O)C(=O)N[C@H](C(=O)N[C@@H](Cc1ccc(O)cc1)C(N)=O)[C@@H](C)O)C(C)C)[C@@H](C)O, Synthetic acylated analogue of human amylin; also called compound 86)
2 |  | 8.07 | 492 | 60.9 | 68.6 | {C20 diacid-γGlu}-GRCNTATCATQRLAAFLRHSSPNFGAIPSSTNVGHNTY-NH2 (disulfide 3-8; SMILES CC[C@H](C)[C@H](NC(=O)[C@H](C)NC(=O)CNC(=O)[C@H](Cc1ccccc1)NC(=O)[C@H](CC(N)=O)NC(=O)[C@@H]1CCCN1C(=O)[C@H](CO)NC(=O)[C@H](CO)NC(=O)[C@H](Cc1c[nH]cn1)NC(=O)[C@H](CCCNC(=N)N)NC(=O)[C@H](CC(C)C)NC(=O)[C@H](Cc1ccccc1)NC(=O)[C@H](C)NC(=O)[C@H](C)NC(=O)[C@H](CC(C)C)NC(=O)[C@H](CCCNC(=N)N)NC(=O)[C@H](CCC(N)=O)NC(=O)[C@@H](NC(=O)[C@H](C)NC(=O)[C@@H]1CSSC[C@H](NC(=O)[C@H](CCCNC(=N)N)NC(=O)CNC(=O)CC[C@H](NC(=O)CCCCCCCCCCCCCCCCCCC(=O)O)C(=O)O)C(=O)N[C@@H](CC(N)=O)C(=O)N[C@@H]([C@@H](C)O)C(=O)N[C@@H](C)C(=O)N[C@@H]([C@@H](C)O)C(=O)N1)[C@@H](C)O)C(=O)N1CCC[C@H]1C(=O)N[C@@H](CO)C(=O)N[C@@H](CO)C(=O)N[C@H](C(=O)N[C@@H](CC(N)=O)C(=O)N[C@H](C(=O)NCC(=O)N[C@@H](Cc1c[nH]cn1)C(=O)N[C@@H](CC(N)=O)C(=O)N[C@H](C(=O)N[C@@H](Cc1ccc(O)cc1)C(N)=O)[C@@H](C)O)C(C)C)[C@@H](C)O, Analogue of human amylin extended by Gly at the N-terminus; disulfide and C-terminal amide as told for h-amylin)
3 |  | 2.7 | 216 | 79.8 | 100 | {C20 diacid-γGlu}-GRCNTATCATQRLAHFLRHSSPNFGAIPSSTNVGSNTY-NH2 (disulfide 3-8; SMILES CC[C@H](C)[C@H](NC(=O)[C@H](C)NC(=O)CNC(=O)[C@H](Cc1ccccc1)NC(=O)[C@H](CC(N)=O)NC(=O)[C@@H]1CCCN1C(=O)[C@H](CO)NC(=O)[C@H](CO)NC(=O)[C@H](Cc1c[nH]cn1)NC(=O)[C@H](CCCNC(=N)N)NC(=O)[C@H](CC(C)C)NC(=O)[C@H](Cc1ccccc1)NC(=O)[C@H](Cc1c[nH]cn1)NC(=O)[C@H](C)NC(=O)[C@H](CC(C)C)NC(=O)[C@H](CCCNC(=N)N)NC(=O)[C@H](CCC(N)=O)NC(=O)[C@@H](NC(=O)[C@H](C)NC(=O)[C@@H]1CSSC[C@H](NC(=O)[C@H](CCCNC(=N)N)NC(=O)CNC(=O)CC[C@H](NC(=O)CCCCCCCCCCCCCCCCCCC(=O)O)C(=O)O)C(=O)N[C@@H](CC(N)=O)C(=O)N[C@@H]([C@@H](C)O)C(=O)N[C@@H](C)C(=O)N[C@@H]([C@@H](C)O)C(=O)N1)[C@@H](C)O)C(=O)N1CCC[C@H]1C(=O)N[C@@H](CO)C(=O)N[C@@H](CO)C(=O)N[C@H](C(=O)N[C@@H](CC(N)=O)C(=O)N[C@H](C(=O)NCC(=O)N[C@@H](CO)C(=O)N[C@@H](CC(N)=O)C(=O)N[C@H](C(=O)N[C@@H](Cc1ccc(O)cc1)C(N)=O)[C@@H](C)O)C(C)C)[C@@H](C)O, Analogue of human amylin extended by Gly at the N-terminus; disulfide and C-terminal amide as told for h-amylin; also called compound 99)
